# Results published in the supplement of paper PMC10065799, “High-throughput profiling of sequence recognition by tyrosine kinases and SH2 domains using bacterial peptide display” (eLife, 2023).
# Molecular target: FGFR3 (UniProt P22607)
# Experiment: phosphorylation enrichment, bacterial display (enrichment ratio); higher = better substrate or ligand; peptides without Tyr show the background
# 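Further: 11-residue human phosphosite peptides and single-mutation variants displayed on the E. coli surface, counted by deep sequencing, each peptide's frequency after selection divided by its frequency in the unselected input library; frequency after pTyr selection over input frequency; kinase dosed for 20-30% of maximal phosphorylation in three min.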
# FGFR3, sequence (P22607 whole entry, looked up): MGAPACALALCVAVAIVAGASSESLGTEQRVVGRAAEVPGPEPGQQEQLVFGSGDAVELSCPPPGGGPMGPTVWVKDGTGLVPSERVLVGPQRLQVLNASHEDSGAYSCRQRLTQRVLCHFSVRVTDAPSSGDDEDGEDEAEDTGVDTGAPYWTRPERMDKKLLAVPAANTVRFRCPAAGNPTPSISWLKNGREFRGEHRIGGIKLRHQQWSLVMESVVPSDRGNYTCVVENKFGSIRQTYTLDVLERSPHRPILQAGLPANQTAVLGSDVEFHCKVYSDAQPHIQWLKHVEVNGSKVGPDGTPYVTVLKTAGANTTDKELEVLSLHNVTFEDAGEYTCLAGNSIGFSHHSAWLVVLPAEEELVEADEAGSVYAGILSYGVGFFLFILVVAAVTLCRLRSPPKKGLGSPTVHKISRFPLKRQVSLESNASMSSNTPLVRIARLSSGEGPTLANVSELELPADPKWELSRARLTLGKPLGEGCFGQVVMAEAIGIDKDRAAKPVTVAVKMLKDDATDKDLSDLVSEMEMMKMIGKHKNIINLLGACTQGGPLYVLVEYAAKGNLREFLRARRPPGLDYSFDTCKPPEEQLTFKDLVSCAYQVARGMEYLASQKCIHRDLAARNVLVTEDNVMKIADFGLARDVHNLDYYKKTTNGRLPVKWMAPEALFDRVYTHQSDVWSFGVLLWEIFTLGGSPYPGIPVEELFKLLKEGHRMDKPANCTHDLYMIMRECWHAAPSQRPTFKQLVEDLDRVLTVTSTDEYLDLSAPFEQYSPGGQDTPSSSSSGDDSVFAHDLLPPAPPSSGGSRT
row,Sequence,phosphorylation enrichment
1,RNFGTYTAGLS [RHBDD1_Y264_D262G_YF],1.07
2,LERYIYNRQEF [HLA-DPB1_Y59_E62Q],0.605
3,YASALYGQRRS [FGF11_Y162_R163G],0.408
4,VMIFAYLLHRG [PTEN_Y138_C136Y_YF],0.422
5,FHKALYTVRTF [PDE6C_Y266_S270T_YF],0.691
6,SFPPTYRYERG [INPPL1_Y661],0.49
7,KDFETYQPFQN [CTNND2_Y1157_YF],0.603
8,PGLSSYGVPAS [FLNB_Y1530],0.526
9,KYACSYTPVKA [FLNB_Y708_T703K],0.697
10,KYLENYLNRLL [PLD2_Y169],0.577
11,TKLKDYYIFNK [CCDC42_Y149_A144T],3.16
12,FAGRDYSLDEF [MYOF_Y1705_G1701A_YF],0.708
13,IVRSLYEDLED [VHL_Y185],0.73
14,QRALLYEDALY [UNC13D_Y56],0.975
15,NCLRVYVAGRF [CRB1_Y711_E710V],0.758
16,LGEGSYGKVKE [STK11_Y60],0.783
17,GSESDYIVMPN [SCARB1_Y133],3.84

row,Sequence,phosphorylation enrichment
1,YLNSSYINIST [IL23R_Y178_T175N],2.14
2,TTPAVYARVTK [CTRB2_Y246_A250T],0.496
3,EHFSFYGMKAV [SLC15A2_Y61_R57H_YF],0.615
4,PLLLSYYLIKW [NUP160_Y773],3.73
5,VVHGSYDEIEG [SEC24A_Y263_S261G],0.591
6,FLAVGDHKPHI [IDS_Y225_Y225D],0.35
7,REIIAYQPYGK [PRKCG_Y529_P524R],0.415
8,FDNPVCQKTTE [LDLR_Y828_Y828C],0.774
9,NKKYHYRELPV [ERN2_Y860_H858Y],0.345
10,IKNPQYFSDAC [NTRK1_Y496_E492K],0.591
11,CTTIDYNYMCN [TP53_Y234_H233D],0.831
12,VLALWYYYLTN [ZDHHC23_Y127_H132N],6.91
13,SIIKDYFHRGA [GATM_Y203],0.455
14,VGEGPYLLSDL [ABCC12_Y7_I9L],0.605
15,CATIHYNFMCN [TP53_Y234_T230A_YF],0.596
16,VFPATYHPDHW [EFCAB12_Y544_YF],0.542

# System: Fer (mouse)
# Experiment: as above
row,Sequence,phosphorylation enrichment
1,RNFGTYTAGLS [RHBDD1_Y264_D262G_YF],0.798
2,LERYIYNRQEF [HLA-DPB1_Y59_E62Q],0.772
3,YASALYGQRRS [FGF11_Y162_R163G],0.411
4,VMIFAYLLHRG [PTEN_Y138_C136Y_YF],0.378
5,FHKALYTVRTF [PDE6C_Y266_S270T_YF],0.427
6,SFPPTYRYERG [INPPL1_Y661],0.29
7,KDFETYQPFQN [CTNND2_Y1157_YF],0.612
8,PGLSSYGVPAS [FLNB_Y1530],0.408
9,KYACSYTPVKA [FLNB_Y708_T703K],0.438
10,KYLENYLNRLL [PLD2_Y169],0.609
11,TKLKDYYIFNK [CCDC42_Y149_A144T],0.538
12,FAGRDYSLDEF [MYOF_Y1705_G1701A_YF],0.451
13,IVRSLYEDLED [VHL_Y185],1.17
14,QRALLYEDALY [UNC13D_Y56],17.1
15,NCLRVYVAGRF [CRB1_Y711_E710V],0.434
16,LGEGSYGKVKE [STK11_Y60],0.574
17,GSESDYIVMPN [SCARB1_Y133],0.455

row,Sequence,phosphorylation enrichment
1,YLNSSYINIST [IL23R_Y178_T175N],0.439
2,TTPAVYARVTK [CTRB2_Y246_A250T],0.378
3,EHFSFYGMKAV [SLC15A2_Y61_R57H_YF],0.48
4,PLLLSYYLIKW [NUP160_Y773],0.633
5,VVHGSYDEIEG [SEC24A_Y263_S261G],0.594
6,FLAVGDHKPHI [IDS_Y225_Y225D],0.197
7,REIIAYQPYGK [PRKCG_Y529_P524R],0.357
8,FDNPVCQKTTE [LDLR_Y828_Y828C],0.528
9,NKKYHYRELPV [ERN2_Y860_H858Y],0.32
10,IKNPQYFSDAC [NTRK1_Y496_E492K],0.37
11,CTTIDYNYMCN [TP53_Y234_H233D],0.464
12,VLALWYYYLTN [ZDHHC23_Y127_H132N],0.766
13,SIIKDYFHRGA [GATM_Y203],0.433
14,VGEGPYLLSDL [ABCC12_Y7_I9L],0.508
15,CATIHYNFMCN [TP53_Y234_T230A_YF],0.602
16,VFPATYHPDHW [EFCAB12_Y544_YF],0.347

# Molecular target: Fes (UniProt P07332)
# Experiment: as above
# Fes, sequence (P07332 whole entry, looked up): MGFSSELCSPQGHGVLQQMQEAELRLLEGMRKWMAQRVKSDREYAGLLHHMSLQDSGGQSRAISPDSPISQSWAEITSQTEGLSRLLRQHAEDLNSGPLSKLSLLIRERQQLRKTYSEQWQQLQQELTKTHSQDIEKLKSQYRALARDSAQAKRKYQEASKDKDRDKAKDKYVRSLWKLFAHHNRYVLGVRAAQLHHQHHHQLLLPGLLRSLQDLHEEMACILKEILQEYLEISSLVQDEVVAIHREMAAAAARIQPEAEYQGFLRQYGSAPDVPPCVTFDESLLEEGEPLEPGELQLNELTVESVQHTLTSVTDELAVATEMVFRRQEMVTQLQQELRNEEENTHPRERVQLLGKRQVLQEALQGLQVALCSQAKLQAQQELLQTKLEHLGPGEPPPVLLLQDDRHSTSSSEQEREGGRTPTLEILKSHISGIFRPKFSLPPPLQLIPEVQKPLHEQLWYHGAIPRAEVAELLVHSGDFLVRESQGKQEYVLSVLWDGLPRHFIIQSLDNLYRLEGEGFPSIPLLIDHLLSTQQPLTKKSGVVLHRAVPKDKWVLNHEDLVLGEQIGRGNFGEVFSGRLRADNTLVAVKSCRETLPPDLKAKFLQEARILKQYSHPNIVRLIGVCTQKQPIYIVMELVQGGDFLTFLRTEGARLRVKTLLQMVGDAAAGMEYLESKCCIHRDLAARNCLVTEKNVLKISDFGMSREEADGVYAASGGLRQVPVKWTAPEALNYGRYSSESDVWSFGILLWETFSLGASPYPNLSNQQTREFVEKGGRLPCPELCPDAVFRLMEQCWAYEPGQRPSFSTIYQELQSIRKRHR
row,Sequence,phosphorylation enrichment
1,RNFGTYTAGLS [RHBDD1_Y264_D262G_YF],0.495
2,LERYIYNRQEF [HLA-DPB1_Y59_E62Q],1.01
3,YASALYGQRRS [FGF11_Y162_R163G],0.668
4,VMIFAYLLHRG [PTEN_Y138_C136Y_YF],0.828
5,FHKALYTVRTF [PDE6C_Y266_S270T_YF],1.02
6,SFPPTYRYERG [INPPL1_Y661],0.592
7,KDFETYQPFQN [CTNND2_Y1157_YF],1.02
8,PGLSSYGVPAS [FLNB_Y1530],0.738
9,KYACSYTPVKA [FLNB_Y708_T703K],0.758
10,KYLENYLNRLL [PLD2_Y169],0.989
11,TKLKDYYIFNK [CCDC42_Y149_A144T],0.91
12,FAGRDYSLDEF [MYOF_Y1705_G1701A_YF],0.969
13,IVRSLYEDLED [VHL_Y185],1.08
14,QRALLYEDALY [UNC13D_Y56],2.05
15,NCLRVYVAGRF [CRB1_Y711_E710V],1.15
16,LGEGSYGKVKE [STK11_Y60],1.5
17,GSESDYIVMPN [SCARB1_Y133],1.04

row,Sequence,phosphorylation enrichment
1,YLNSSYINIST [IL23R_Y178_T175N],0.799
2,TTPAVYARVTK [CTRB2_Y246_A250T],0.442
3,EHFSFYGMKAV [SLC15A2_Y61_R57H_YF],1.04
4,PLLLSYYLIKW [NUP160_Y773],1.83
5,VVHGSYDEIEG [SEC24A_Y263_S261G],0.9
6,FLAVGDHKPHI [IDS_Y225_Y225D],0.462
7,REIIAYQPYGK [PRKCG_Y529_P524R],0.721
8,FDNPVCQKTTE [LDLR_Y828_Y828C],1.18
9,NKKYHYRELPV [ERN2_Y860_H858Y],0.502
10,IKNPQYFSDAC [NTRK1_Y496_E492K],0.74
11,CTTIDYNYMCN [TP53_Y234_H233D],0.93
12,VLALWYYYLTN [ZDHHC23_Y127_H132N],1.81
13,SIIKDYFHRGA [GATM_Y203],0.679
14,VGEGPYLLSDL [ABCC12_Y7_I9L],0.941
15,CATIHYNFMCN [TP53_Y234_T230A_YF],0.944
16,VFPATYHPDHW [EFCAB12_Y544_YF],0.792

# Molecular target: Fyn (UniProt P06241)
# Experiment: as above
# Fyn, sequence (P06241 whole entry, looked up): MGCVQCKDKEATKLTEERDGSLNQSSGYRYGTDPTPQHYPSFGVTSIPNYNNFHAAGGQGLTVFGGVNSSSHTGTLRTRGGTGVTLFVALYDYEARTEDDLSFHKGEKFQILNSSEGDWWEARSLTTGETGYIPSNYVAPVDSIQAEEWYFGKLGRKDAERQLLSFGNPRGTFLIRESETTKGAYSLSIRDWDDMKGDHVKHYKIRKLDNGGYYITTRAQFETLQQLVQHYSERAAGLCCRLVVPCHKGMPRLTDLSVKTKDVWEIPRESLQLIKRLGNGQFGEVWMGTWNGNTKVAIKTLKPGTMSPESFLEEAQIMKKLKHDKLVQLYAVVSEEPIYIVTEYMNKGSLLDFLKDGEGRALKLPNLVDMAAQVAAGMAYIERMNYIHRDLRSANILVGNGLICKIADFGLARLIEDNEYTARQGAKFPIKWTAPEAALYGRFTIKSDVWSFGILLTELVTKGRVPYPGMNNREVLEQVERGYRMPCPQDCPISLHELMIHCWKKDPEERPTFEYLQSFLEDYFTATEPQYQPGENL
row,Sequence,phosphorylation enrichment
1,RNFGTYTAGLS [RHBDD1_Y264_D262G_YF],0.441
2,LERYIYNRQEF [HLA-DPB1_Y59_E62Q],0.819
3,YASALYGQRRS [FGF11_Y162_R163G],0.659
4,VMIFAYLLHRG [PTEN_Y138_C136Y_YF],0.352
5,FHKALYTVRTF [PDE6C_Y266_S270T_YF],0.581
6,SFPPTYRYERG [INPPL1_Y661],0.431
7,KDFETYQPFQN [CTNND2_Y1157_YF],4.76
8,PGLSSYGVPAS [FLNB_Y1530],0.661
9,KYACSYTPVKA [FLNB_Y708_T703K],0.387
10,KYLENYLNRLL [PLD2_Y169],0.45
11,TKLKDYYIFNK [CCDC42_Y149_A144T],0.579
12,FAGRDYSLDEF [MYOF_Y1705_G1701A_YF],0.454
13,IVRSLYEDLED [VHL_Y185],0.509
14,QRALLYEDALY [UNC13D_Y56],7.7
15,NCLRVYVAGRF [CRB1_Y711_E710V],0.535
16,LGEGSYGKVKE [STK11_Y60],0.939
17,GSESDYIVMPN [SCARB1_Y133],0.575

row,Sequence,phosphorylation enrichment
1,YLNSSYINIST [IL23R_Y178_T175N],0.475
2,TTPAVYARVTK [CTRB2_Y246_A250T],2.46
3,EHFSFYGMKAV [SLC15A2_Y61_R57H_YF],0.473
4,PLLLSYYLIKW [NUP160_Y773],0.358
5,VVHGSYDEIEG [SEC24A_Y263_S261G],0.395
6,FLAVGDHKPHI [IDS_Y225_Y225D],0.433
7,REIIAYQPYGK [PRKCG_Y529_P524R],0.625
8,FDNPVCQKTTE [LDLR_Y828_Y828C],0.573
9,NKKYHYRELPV [ERN2_Y860_H858Y],0.296
10,IKNPQYFSDAC [NTRK1_Y496_E492K],0.464
11,CTTIDYNYMCN [TP53_Y234_H233D],0.558
12,VLALWYYYLTN [ZDHHC23_Y127_H132N],0.611
13,SIIKDYFHRGA [GATM_Y203],0.407
14,VGEGPYLLSDL [ABCC12_Y7_I9L],0.565
15,CATIHYNFMCN [TP53_Y234_T230A_YF],0.478
16,VFPATYHPDHW [EFCAB12_Y544_YF],0.469
